In US10227388B2, “Peptides and combination of peptides for use in immunotherapy against non-small cell lung cancer and other cancers” (immatics biotechnologies GmbH, priority 2015, dated 2019):

Target: HLA-A*02:01 (Homo sapiens, UniProt P04439, D140Y/D185E/D98H/E176V/E277Q/G131W/G231S/I119V/I121R/I166T/I218V/L300P/L318F/N151K/N90K/P208A/P217A/Q86G/Q94H/R138H/R169H/T345S)
Assay: MHC binding assay (UV-ligand exchange, ELISA, peptide exchange yield)
Conditions: binding of HLA-class I restricted peptides to HLA-A*02:01
In short: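 Peptide–HLA-A*02:01 complexes made by UV-ligand exchange of a UV-cleavable peptide for the test peptide. Exchange yield measured by ELISA: 100-fold diluted monomers captured on streptavidin, 1 h at 37° C., detected with HRP anti-β2m and TMB, absorbance at 450 nm.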

208 (KISPVTFSV; listed as Homo sapiens) [compound 208]
Peptide exchange (MHC class I binding score, peptide exchange yield): ″+++″ (≥50% = +++)

576 (ILLNNSGQIKL; listed as Homo sapiens) [compound 576]
Peptide exchange (MHC class I binding score, peptide exchange yield): ″++++″ (≥75% = ++++)

114 (SLVGEPILQNV; listed as Homo sapiens) [compound 114]
Peptide exchange (MHC class I binding score, peptide exchange yield): ″++″ (≥20% = ++)

324 (FLYDEIEAEV; listed as Homo sapiens) [compound 324]
Peptide exchange (MHC class I binding score, peptide exchange yield): ″+++″ (≥50% = +++)

318 (GLINTGVLSV; listed as Homo sapiens) [compound 318]
Peptide exchange (MHC class I binding score, peptide exchange yield): ″++″ (≥20% = ++)

83 (ILAPTVMMI; listed as Homo sapiens) [compound 83]
Peptide exchange (MHC class I binding score, peptide exchange yield): ″+++″ (≥50% = +++)

204 (KIAENVEEV; listed as Homo sapiens) [compound 204]
Peptide exchange (MHC class I binding score, peptide exchange yield): ″++″ (≥20% = ++)

267 (ALQDFLLSV; listed as Homo sapiens) [compound 267]
Peptide exchange (MHC class I binding score, peptide exchange yield): ″+++″ (≥50% = +++)

87 (ALPEAPAPLLPHIT; listed as Homo sapiens) [compound 87]
Peptide exchange (MHC class I binding score, peptide exchange yield): ″++″ (≥20% = ++)

106 (LLYDAVHIVSV; listed as Homo sapiens) [compound 106]
Peptide exchange (MHC class I binding score, peptide exchange yield): ″+++″ (≥50% = +++)

444 (GLLRDEALAEV; listed as Homo sapiens) [compound 444]
Peptide exchange (MHC class I binding score, peptide exchange yield): ″+++″ (≥50% = +++)

500 (SLMEDQVLQL; listed as Homo sapiens) [compound 500]
Peptide exchange (MHC class I binding score, peptide exchange yield): ″+++″ (≥50% = +++)

39 (SVAPNLPAV; listed as Homo sapiens) [compound 39]
Peptide exchange (MHC class I binding score, peptide exchange yield): ″+++″ (≥50% = +++)

163 (ALDEMGDLLQL; listed as Homo sapiens) [compound 163]
Peptide exchange (MHC class I binding score, peptide exchange yield): ″+++″ (≥50% = +++)

239 (AAFAGKLLSV; listed as Homo sapiens) [compound 239]
Peptide exchange (MHC class I binding score, peptide exchange yield): ″+++″ (≥50% = +++)

488 (FLAEDPKVTL; listed as Homo sapiens) [compound 488]
Peptide exchange (MHC class I binding score, peptide exchange yield): ″+++″ (≥50% = +++)

53 (KMIETDILQKV; listed as Homo sapiens) [compound 53]
Peptide exchange (MHC class I binding score, peptide exchange yield): ″++++″ (≥75% = ++++)

408 (VLDDSIYLV; listed as Homo sapiens) [compound 408]
Peptide exchange (MHC class I binding score, peptide exchange yield): ″++″ (≥20% = ++)

193 (QLLDADGFLNV; listed as Homo sapiens) [compound 193]
Peptide exchange (MHC class I binding score, peptide exchange yield): ″+++″ (≥50% = +++)

175 (YLFENISQL; listed as Homo sapiens) [compound 175]
Peptide exchange (MHC class I binding score, peptide exchange yield): ″+++″ (≥50% = +++)

149 (NLLELFVQL; listed as Homo sapiens) [compound 149]
Peptide exchange (MHC class I binding score, peptide exchange yield): ″+++″ (≥50% = +++)

257 (SIFSAFLSV; listed as Homo sapiens) [compound 257]
Peptide exchange (MHC class I binding score, peptide exchange yield): ″+++″ (≥50% = +++)

276 (ALFTFSPLTV; listed as Homo sapiens) [compound 276]
Peptide exchange (MHC class I binding score, peptide exchange yield): ″+++″ (≥50% = +++)

363 (KVLDVSDLESV; listed as Homo sapiens) [compound 363]
Peptide exchange (MHC class I binding score, peptide exchange yield): ″++″ (≥20% = ++)

211 (LLWPGAALL; listed as Homo sapiens) [compound 211]
Peptide exchange (MHC class I binding score, peptide exchange yield): ″++″ (≥20% = ++)

486 (AVMESIQGV; listed as Homo sapiens) [compound 486]
Peptide exchange (MHC class I binding score, peptide exchange yield): ″+++″ (≥50% = +++)

94 (YLIDIKTIAI; listed as Homo sapiens) [compound 94]
Peptide exchange (MHC class I binding score, peptide exchange yield): ″++″ (≥20% = ++)

380 (TLIEDEIATI; listed as Homo sapiens) [compound 380]
Peptide exchange (MHC class I binding score, peptide exchange yield): ″++″ (≥20% = ++)

321 (GLFEDVTQPGILL; listed as Homo sapiens) [compound 321]
Peptide exchange (MHC class I binding score, peptide exchange yield): ″++++″ (≥75% = ++++)

477 (ALLPASGQIAL; listed as Homo sapiens) [compound 477]
Peptide exchange (MHC class I binding score, peptide exchange yield): ″+++″ (≥50% = +++)

427 (ALLPLSPYL; listed as Homo sapiens) [compound 427]
Peptide exchange (MHC class I binding score, peptide exchange yield): ″+++″ (≥50% = +++)

160 (FLFDEEIEQI; listed as Homo sapiens) [compound 160]
Peptide exchange (MHC class I binding score, peptide exchange yield): ″+++″ (≥50% = +++)

72 (SLLELDGINL; listed as Homo sapiens) [compound 72]
Peptide exchange (MHC class I binding score, peptide exchange yield): ″+++″ (≥50% = +++)

440 (ALADGVTMQV; listed as Homo sapiens) [compound 440]
Peptide exchange (MHC class I binding score, peptide exchange yield): ″++″ (≥20% = ++)

20 (RMIEYFIDV; listed as Homo sapiens) [compound 20]
Peptide exchange (MHC class I binding score, peptide exchange yield): ″+++″ (≥50% = +++)

473 (AMATESILHFA; listed as Homo sapiens) [compound 473]
Peptide exchange (MHC class I binding score, peptide exchange yield): ″+++″ (≥50% = +++)

115 (AIAGAGILYGV; listed as Homo sapiens) [compound 115]
Peptide exchange (MHC class I binding score, peptide exchange yield): ″++″ (≥20% = ++)

251 (ALYTGFSILV; listed as Homo sapiens) [compound 251]
Peptide exchange (MHC class I binding score, peptide exchange yield): ″++″ (≥20% = ++)

152 (ILFEDIFDV; listed as Homo sapiens) [compound 152]
Peptide exchange (MHC class I binding score, peptide exchange yield): ″+++″ (≥50% = +++)

501 (LLDPNVKSIFV; listed as Homo sapiens) [compound 501]
Peptide exchange (MHC class I binding score, peptide exchange yield): ″+++″ (≥50% = +++)

119 (FLYIGDIVSL; listed as Homo sapiens) [compound 119]
Peptide exchange (MHC class I binding score, peptide exchange yield): ″++++″ (≥75% = ++++)

512 (SLSEIVPCL; listed as Homo sapiens) [compound 512]
Peptide exchange (MHC class I binding score, peptide exchange yield): ″+++″ (≥50% = +++)

407 (YLMDLINFL; listed as Homo sapiens) [compound 407]
Peptide exchange (MHC class I binding score, peptide exchange yield): ″+++″ (≥50% = +++)

523 (YQIPRTFTL; listed as Homo sapiens) [compound 523]
Peptide exchange (MHC class I binding score, peptide exchange yield): ″++″ (≥20% = ++)

609 (ALWKQLLEL; listed as Homo sapiens) [compound 609]
Peptide exchange (MHC class I binding score, peptide exchange yield): ″+++″ (≥50% = +++)

162 (YQQAQVPSV; listed as Homo sapiens) [compound 162]
Peptide exchange (MHC class I binding score, peptide exchange yield): ″+++″ (≥50% = +++)

612 (YLYNEGLSV; listed as Homo sapiens) [compound 612]
Peptide exchange (MHC class I binding score, peptide exchange yield): ″+++″ (≥50% = +++)

549 (AMLENASDIKL; listed as Homo sapiens) [compound 549]
Peptide exchange (MHC class I binding score, peptide exchange yield): ″+++″ (≥50% = +++)

322 (TLMTSLPAL; listed as Homo sapiens) [compound 322]
Peptide exchange (MHC class I binding score, peptide exchange yield): ″+++″ (≥50% = +++)

571 (LLLTTIPQI; listed as Homo sapiens) [compound 571]
Peptide exchange (MHC class I binding score, peptide exchange yield): ″+++″ (≥50% = +++)

142 (FLFATPVFI; listed as Homo sapiens) [compound 142]
Peptide exchange (MHC class I binding score, peptide exchange yield): ″+++″ (≥50% = +++)

450 (FMIDASVHPTL; listed as Homo sapiens) [compound 450]
Peptide exchange (MHC class I binding score, peptide exchange yield): ″+++″ (≥50% = +++)

62 (VLLDVSAGQLLM; listed as Homo sapiens) [compound 62]
Peptide exchange (MHC class I binding score, peptide exchange yield): ″++++″ (≥75% = ++++)

300 (ALLGQTFSL; listed as Homo sapiens) [compound 300]
Peptide exchange (MHC class I binding score, peptide exchange yield): ″+++″ (≥50% = +++)

104 (STMEQNFLL; listed as Homo sapiens) [compound 104]
Peptide exchange (MHC class I binding score, peptide exchange yield): ″++++″ (≥75% = ++++)

349 (SLTEYLQNV; listed as Homo sapiens) [compound 349]
Peptide exchange (MHC class I binding score, peptide exchange yield): ″++++″ (≥75% = ++++)

593 (GLPRFGIEMV; listed as Homo sapiens) [compound 593]
Peptide exchange (MHC class I binding score, peptide exchange yield): ″+++″ (≥50% = +++)

402 (VLFSGALLGL; listed as Homo sapiens) [compound 402]
Peptide exchange (MHC class I binding score, peptide exchange yield): ″++″ (≥20% = ++)

232 (ALLEAQDVELYL; listed as Homo sapiens) [compound 232]
Peptide exchange (MHC class I binding score, peptide exchange yield): ″++″ (≥20% = ++)

310 (FLVDTPLARA; listed as Homo sapiens) [compound 310]
Peptide exchange (MHC class I binding score, peptide exchange yield): ″++++″ (≥75% = ++++)

352 (SLLELLHIYV; listed as Homo sapiens) [compound 352]
Peptide exchange (MHC class I binding score, peptide exchange yield): ″+++″ (≥50% = +++)
